# In IntAct's records for PubMed 17911252:
# B1: N-chimaerin (Homo sapiens), P15882-1 (parent)
# chain: MALTLFDTDEYRPPVWKSYLYQLQQEAPHPRRITCTCEVENRPKYYGREFHGMISREAADQLLIVAEGSYLIRESQRQPGTYTLALRFGSQTRNFRLYYDGKHFVGEKRFESIHDLVTDGLITLYIETKAAEYIAKMTINPIYEHVGYTTLNREPAYKKHMPVLKETHDERDSTGQDGVSEKRLTSLVRRATLKENEQIPKYEKIHNFKVHTFRGPHWCEYCANFMWGLIAQGVKCADCGLNVHKQCSKMVPNDCKPDLKHVKKVYSCDLTTLVKAHTTKRPMVVDMCIREIESRGLNSEGLYRVSGFSDLIEDVKMAFDRDGEKADISVNMYEDINIITGALKLYFRDLPIPLITYDAYPKFIESAKIMDPDEQLETLHEALKLLPPAHCETLRYLMAHLKRVTLHEKENLMNAENLGIVFGPTLMRSPELDAMAALNDIRYQRLVVELLIKNEDILF
# Variants of: B1
# Conditions: with epha4_mouse Epha4, Q03137
# Chain of epha4_mouse Epha4, Q03137 (Q03137 whole entry): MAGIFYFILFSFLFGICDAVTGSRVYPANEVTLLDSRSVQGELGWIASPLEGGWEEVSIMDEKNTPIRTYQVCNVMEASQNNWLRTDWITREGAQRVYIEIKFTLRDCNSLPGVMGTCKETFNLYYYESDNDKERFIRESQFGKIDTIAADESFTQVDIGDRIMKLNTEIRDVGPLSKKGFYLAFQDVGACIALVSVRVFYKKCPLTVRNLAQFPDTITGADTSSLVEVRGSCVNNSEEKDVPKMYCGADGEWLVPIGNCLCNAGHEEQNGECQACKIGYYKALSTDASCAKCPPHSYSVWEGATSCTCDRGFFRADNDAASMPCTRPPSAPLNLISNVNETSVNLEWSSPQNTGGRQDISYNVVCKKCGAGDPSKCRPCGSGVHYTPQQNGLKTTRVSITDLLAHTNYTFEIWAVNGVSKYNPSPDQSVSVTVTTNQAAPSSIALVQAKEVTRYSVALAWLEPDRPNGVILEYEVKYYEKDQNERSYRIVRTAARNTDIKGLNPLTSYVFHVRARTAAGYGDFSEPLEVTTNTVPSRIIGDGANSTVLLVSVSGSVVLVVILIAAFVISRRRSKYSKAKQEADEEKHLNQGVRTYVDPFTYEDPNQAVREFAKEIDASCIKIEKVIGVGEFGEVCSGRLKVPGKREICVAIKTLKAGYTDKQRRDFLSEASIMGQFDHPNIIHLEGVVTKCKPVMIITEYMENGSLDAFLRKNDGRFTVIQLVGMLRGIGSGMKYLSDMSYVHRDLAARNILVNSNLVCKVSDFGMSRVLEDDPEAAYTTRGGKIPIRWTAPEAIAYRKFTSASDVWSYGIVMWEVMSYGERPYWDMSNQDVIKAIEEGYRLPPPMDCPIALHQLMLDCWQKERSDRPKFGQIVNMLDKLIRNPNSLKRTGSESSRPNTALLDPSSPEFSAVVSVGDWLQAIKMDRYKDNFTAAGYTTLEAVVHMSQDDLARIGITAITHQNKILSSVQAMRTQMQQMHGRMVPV
row,effect of a mutation on the interaction,Variant
1,decreasing interaction strength,R56L
